Measured values taken from patent US20080207498A1, “Methods for Treating Alzheimer's Disease” (priority 2005, published 2008).
No end group written: not given here.

Tests used:
[1] = target: Preformed immune complex of peroxidase and rabbit anti-peroxidase IgG (PAP complex) (horseradish) (UniProt P00433); assay: competition reverse ELISA: PAP pre-incubated with peptide, residual PAP binding to FcγIII-coated plate
[2] = target: Preformed immune complex of peroxidase and rabbit anti-peroxidase IgG (PAP complex) (horseradish) (UniProt P00433); assay: competition reverse ELISA: PAP pre-incubated with peptide, residual PAP binding to C1q-coated plate
[3] = target: Preformed immune complex of peroxidase and rabbit anti-peroxidase IgG (PAP complex) (horseradish) (UniProt P00433); assay: competition reverse ELISA: PAP pre-incubated with peptide, residual PAP binding to FcγIIb-coated plate
[4] = target: Preformed immune complex of peroxidase and rabbit anti-peroxidase IgG (PAP complex) (horseradish) (UniProt P00433); assay: competition reverse ELISA: PAP pre-incubated with peptide, residual PAP binding to FcγIIa-coated plate
[5] = target: Preformed immune complex of peroxidase and rabbit anti-peroxidase IgG (PAP complex) (horseradish) (UniProt P00433); assay: competition reverse ELISA: PAP pre-incubated with peptide, residual PAP binding to plate coated with human wt β amyloid peptide 1-40
[6] = target: Preformed immune complex of peroxidase and rabbit anti-peroxidase IgG (PAP complex) (horseradish) (UniProt P00433); assay: competition reverse ELISA: PAP pre-incubated with peptide, residual PAP binding to plate coated with human wt tau

Sequence of Preformed immune complex of peroxidase and rabbit anti-peroxidase IgG (PAP complex) (horseradish) (P00433 31-338, one chain of several): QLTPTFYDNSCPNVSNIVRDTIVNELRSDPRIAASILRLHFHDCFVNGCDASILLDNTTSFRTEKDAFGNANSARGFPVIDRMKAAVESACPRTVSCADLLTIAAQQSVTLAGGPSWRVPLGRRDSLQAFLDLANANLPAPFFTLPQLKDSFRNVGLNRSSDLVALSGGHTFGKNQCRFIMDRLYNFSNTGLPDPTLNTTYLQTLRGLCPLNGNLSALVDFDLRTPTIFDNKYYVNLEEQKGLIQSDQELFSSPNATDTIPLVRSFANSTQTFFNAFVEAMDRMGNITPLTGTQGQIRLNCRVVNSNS

Binder	OD 405 nm [1] [OD]	OD 405 nm [2] [OD]	OD 405 nm [3] [OD]	OD 405 nm [4] [OD]	OD 405 nm [5] [OD]	OD 405 nm [6] [OD]
DCAFHLGELVWCT [Peptide … (SEQ ID NO:3)]	0.81	0.859	0.51	0.66		
APPCARHLGELVWCT (not fully specified; cysteine pairing not given here) [Peptide … (SEQ ID NO:14)]	0.709	0.567	0.768	0.956		
APPCAWHLGELVWCT (not fully specified; cysteine pairing not given here) [Peptide … (SEQ ID NO:13)]	0.53	1.15	0.562	0.658		

Further lines, results first:

OD 405 nm [1] [OD]	OD 405 nm [2] [OD]	OD 405 nm [3] [OD]	OD 405 nm [4] [OD]	OD 405 nm [5] [OD]	OD 405 nm [6] [OD]	Binder
0.88	0.983	0.38	0.605			APPCAFHLGELVWCT (not fully specified; cysteine pairing not given here) [Peptide … (SEQ ID NO:15)]
0.67	0.389	0.496	0.509	0.885	0.059	APPDCAWHLGELVWCT [Peptide … (SEQ ID NO:16)]
